B1: Vacuolar protein-sorting-associated protein 25 (Homo sapiens), Q9BRG1 (parent)
chain: MAMSFEWPWQYRFPPFFTLQPNVDTRQKQLAAWCSLVLSFCRLHKQSSMTVMEAQESPLFNNVKLQRKLPVESIQIVLEELRKKGNLEWLDKSKSSFLIMWRRPEEWGKLIYQWVSRSGQNNSVFTLYELTNGEDTEDEEFHGLDEATLLRALQALQQEHKAEIITVSDGRGVKFF
partner: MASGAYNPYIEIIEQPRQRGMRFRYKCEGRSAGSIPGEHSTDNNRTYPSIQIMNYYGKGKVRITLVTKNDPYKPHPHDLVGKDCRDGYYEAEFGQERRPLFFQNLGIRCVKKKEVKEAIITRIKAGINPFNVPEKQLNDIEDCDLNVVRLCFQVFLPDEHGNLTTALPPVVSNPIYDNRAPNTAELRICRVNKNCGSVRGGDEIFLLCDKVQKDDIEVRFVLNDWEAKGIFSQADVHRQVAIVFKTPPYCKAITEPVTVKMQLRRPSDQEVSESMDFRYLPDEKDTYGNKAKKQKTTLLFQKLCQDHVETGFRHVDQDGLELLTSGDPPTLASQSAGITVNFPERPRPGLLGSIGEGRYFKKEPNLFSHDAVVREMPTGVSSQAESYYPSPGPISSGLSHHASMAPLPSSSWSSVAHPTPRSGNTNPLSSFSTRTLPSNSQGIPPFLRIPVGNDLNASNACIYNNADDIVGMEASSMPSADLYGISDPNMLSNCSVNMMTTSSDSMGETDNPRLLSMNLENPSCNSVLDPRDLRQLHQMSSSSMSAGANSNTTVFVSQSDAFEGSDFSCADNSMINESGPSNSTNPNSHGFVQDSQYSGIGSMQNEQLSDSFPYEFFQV
B2: F-box/LRR-repeat protein 12 (Homo sapiens), Q9NXK8 (parent)
chain: MATLVELPDSVLLEIFSYLPVRDRIRISRVCHRWKRLVDDRWLWRHVDLTLYTMRPKVMWHLLRRYMASRLHSLRMGGYLFSGSQAPQLSPALLRALGQKCPNLKRLCLHVADLSMVPITSLPSTLRTLELHSCEISMAWLHKQQDPTVLPLLECIVLDRVPAFRDEHLQGLTRFRALRSLVLGGTYRVTETGLDAGLQELSYLQRLEVLGCTLSADSTLLAISRHLRDVRKIRLTVRGLSAPGLAVLEGMPALESLCLQGPLVTPEMPSPTEILSSCLTMPKLRVLELQGLGWEGQEAEKILCKGLPHCMVIVRACPKESMDWWM
partner: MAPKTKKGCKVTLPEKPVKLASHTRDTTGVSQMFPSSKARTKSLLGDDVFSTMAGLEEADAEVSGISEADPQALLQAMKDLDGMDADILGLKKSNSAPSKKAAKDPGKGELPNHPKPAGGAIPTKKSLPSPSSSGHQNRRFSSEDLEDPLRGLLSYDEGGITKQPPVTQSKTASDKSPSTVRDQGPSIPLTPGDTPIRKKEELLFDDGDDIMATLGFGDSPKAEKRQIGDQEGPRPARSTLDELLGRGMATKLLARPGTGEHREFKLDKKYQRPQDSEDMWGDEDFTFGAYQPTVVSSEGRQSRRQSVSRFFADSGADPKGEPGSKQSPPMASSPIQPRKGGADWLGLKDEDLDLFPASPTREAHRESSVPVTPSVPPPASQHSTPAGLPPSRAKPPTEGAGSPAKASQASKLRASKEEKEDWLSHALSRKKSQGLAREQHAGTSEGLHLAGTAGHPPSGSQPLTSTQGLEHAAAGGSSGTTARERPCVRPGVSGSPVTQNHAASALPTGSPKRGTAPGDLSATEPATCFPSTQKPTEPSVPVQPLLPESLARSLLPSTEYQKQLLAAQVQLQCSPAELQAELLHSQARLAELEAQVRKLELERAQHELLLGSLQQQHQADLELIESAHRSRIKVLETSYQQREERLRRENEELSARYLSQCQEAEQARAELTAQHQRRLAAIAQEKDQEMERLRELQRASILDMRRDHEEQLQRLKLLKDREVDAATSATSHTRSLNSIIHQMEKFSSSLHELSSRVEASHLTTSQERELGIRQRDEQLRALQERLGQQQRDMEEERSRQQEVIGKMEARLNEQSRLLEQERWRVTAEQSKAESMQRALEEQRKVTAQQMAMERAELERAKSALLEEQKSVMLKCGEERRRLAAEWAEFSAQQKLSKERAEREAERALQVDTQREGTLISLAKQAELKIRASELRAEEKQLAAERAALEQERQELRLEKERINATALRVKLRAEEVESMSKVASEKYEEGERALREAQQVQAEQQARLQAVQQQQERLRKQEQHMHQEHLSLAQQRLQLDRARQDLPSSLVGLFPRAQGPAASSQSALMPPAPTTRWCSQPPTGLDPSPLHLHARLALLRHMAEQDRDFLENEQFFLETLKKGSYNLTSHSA
B3: Pre-B-cell leukemia transcription factor 4 (Homo sapiens), Q9BYU1 (parent)
chain: MAAPPRPAPSPPAPRRLDTSDVLQQIMAITDQSLDEAQARKHALNCHRMKPALFSVLCEIKEKTVVSIRGIQDEDPPDAQLLRLDNMLLAEGVCRPEKRGRGGAVARAGTATPGGCPNDNSIEHSDYRAKLSQIRQIYHSELEKYEQACREFTTHVTNLLQEQSRMRPVSPKEIERMVGAIHGKFSAIQMQLKQSTCEAVMTLRSRLLDARRKRRNFSKQATEVLNEYFYSHLNNPYPSEEAKEELARKGGLTISQVSNWFGNKRIRYKKNMGKFQEEATIYTGKTAVDTTEVGVPGNHASCLSTPSSGSSGPFPLPSAGDAFLTLRTLASLQPPPGGGCLQSQAQGSWQGATPQPATASPAGDPGSINSSTSN
partner: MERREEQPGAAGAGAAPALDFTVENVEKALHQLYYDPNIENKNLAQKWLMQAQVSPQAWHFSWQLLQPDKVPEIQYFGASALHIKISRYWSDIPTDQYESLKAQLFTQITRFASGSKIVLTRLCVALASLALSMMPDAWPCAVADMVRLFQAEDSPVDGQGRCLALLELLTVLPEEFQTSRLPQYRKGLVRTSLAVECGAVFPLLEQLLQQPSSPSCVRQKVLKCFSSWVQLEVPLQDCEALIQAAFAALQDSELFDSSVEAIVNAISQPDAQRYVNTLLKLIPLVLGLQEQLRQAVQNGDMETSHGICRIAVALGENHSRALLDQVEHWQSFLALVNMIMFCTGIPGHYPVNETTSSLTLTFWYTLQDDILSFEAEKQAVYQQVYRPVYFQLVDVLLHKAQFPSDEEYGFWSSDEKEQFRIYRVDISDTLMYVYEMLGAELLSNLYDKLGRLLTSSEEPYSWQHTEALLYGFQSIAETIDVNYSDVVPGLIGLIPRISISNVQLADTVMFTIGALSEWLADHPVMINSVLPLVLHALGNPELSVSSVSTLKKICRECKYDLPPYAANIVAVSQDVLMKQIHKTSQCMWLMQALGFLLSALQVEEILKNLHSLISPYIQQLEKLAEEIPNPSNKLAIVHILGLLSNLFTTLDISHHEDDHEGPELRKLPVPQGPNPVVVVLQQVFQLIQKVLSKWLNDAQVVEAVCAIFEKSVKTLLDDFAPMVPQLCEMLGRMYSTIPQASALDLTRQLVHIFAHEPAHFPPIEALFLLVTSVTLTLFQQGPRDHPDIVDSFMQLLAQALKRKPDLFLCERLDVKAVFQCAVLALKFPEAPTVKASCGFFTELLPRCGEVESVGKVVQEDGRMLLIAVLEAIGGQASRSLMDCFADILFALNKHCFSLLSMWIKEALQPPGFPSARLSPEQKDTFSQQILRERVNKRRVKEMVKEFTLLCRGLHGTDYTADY
B4: Casein kinase II subunit alpha (Homo sapiens), P68400 (parent)
chain: MSGPVPSRARVYTDVNTHRPREYWDYESHVVEWGNQDDYQLVRKLGRGKYSEVFEAINITNNEKVVVKILKPVKKKKIKREIKILENLRGGPNIITLADIVKDPVSRTPALVFEHVNNTDFKQLYQTLTDYDIRFYMYEILKALDYCHSMGIMHRDVKPHNVMIDHEHRKLRLIDWGLAEFYHPGQEYNVRVASRYFKGPELLVDYQMYDYSLDMWSLGCMLASMIFRKEPFFHGHDNYDQLVRIAKVLGTEDLYDYIDKYNIELDPRFNDILGRHSRKRWERFVHSENQHLVSPEALDFLDKLLRYDHQSRLTAREAMEHPYFYTVVKDQARMGSSSMPGGSTPVSSANMMSGISSVPTPSPLGPLAGSPVIAAANPLGMPVPAAAGAQQ
partner: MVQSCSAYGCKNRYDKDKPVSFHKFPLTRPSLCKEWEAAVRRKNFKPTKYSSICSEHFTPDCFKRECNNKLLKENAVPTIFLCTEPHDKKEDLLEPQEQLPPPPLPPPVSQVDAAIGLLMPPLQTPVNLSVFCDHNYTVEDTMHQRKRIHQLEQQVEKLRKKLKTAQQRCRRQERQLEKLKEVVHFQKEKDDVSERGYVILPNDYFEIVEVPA

Variants of: B1
Details: with rel_human REL
For P58Q, the “effect of a mutation on the interaction” value was “disrupting interaction strength”.

Variants of: B2
Details: with fbf1_human FBF1, Q8TES7
For I313V, the “effect of a mutation on the interaction” value was “with no effect”.

Variants of: B3
Details: with ipo13_human IPO13, O94829
For A247T, the “effect of a mutation on the interaction” value was “disrupting interaction strength”.

Variants of: B4
Details: with thap1_human THAP1, Q9NVV9
K198R was tested, and the “effect of a mutation on the interaction” value was “with no effect”.
